# The nanobody polyreactivity screen of Harvey et al. (2022)
# Experiment: yeast display, Sf9 membrane polyspecificity reagent, FACS + sequencing; frameworks hold sequencing errors
# Procedure, shortened: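 Galactose-induced (36–48 hours) yeast carrying a synthetic nanobody display library were exposed to 10% biotinylated, detergent-solubilized Sf9 membrane reagent at 4 °C for 1 hour. FACS followed streptavidin microbead enrichment, using low and high (top ~1%) gates for expression (anti-HA) and reagent binding (streptavidin). Colony PCR, MiSeq 2 × 250 sequencing and CDR-length filtering followed. Labels for polyreactivity reflect the gate of origin.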
row,Sequence,polyreactivity (PSR sort gate)
1,QVQLVESGGGLVQAGGSLRLSFAASGITFDHYAMGWYRQAPGKEREFVAAIDDIGGDTYYADSVKGRFTISRDNAKNTVYLQMNSLKPEDTAVYYCAADYGYYSRFYYWGQGTQVTVSS,low polyreactivity
2,QVQLVESGRGLVQAGGSLRLRCAASGSIFKSNVMGWYRPAPGKERELVAVITRSGGSTYYADSEKGRFTISRDNAKNTVYLQMNSLKPEDTAVYYCNRAAGYWAGYYHWGQGTQVTVSS,high polyreactivity
3,QVQLVESGGGLVQAGGSLRLSCAASGSIFAQYAMGWYRQAPGKERELVATISSVGSTNYADSVKGRFTISRDNAKNTVYLQMNSLKPEDTAVYYCAARYPVGRSPRAYEYWGQGTQVTVSS,low polyreactivity
4,QVQLVESGGGLVQAGGSLRLSSAASGSTFTSYAMGWYRQAPGKEREVVSTITGRGGSTSYSDSVKGRFTISRDNAKNTVYLQMNSLKPEDTAVYYCAKRVVVWYFGTGDYWGQGTKVTVSS,low polyreactivity
5,QVQLVESGGGLVQAGGSLRLSCAASGRISTRYTMGWYRQAPGKERELVAAISGNAGRTYYADSVKGRFTISRDNAKNTVYVQMNSLKPADTAVYYCARESGYRAYEIQFYYWGQGTQVTVSS,high polyreactivity
6,QVQLLESGGGIVQAGGSLRLSCAASGRTFYVYGMGWYRQAPGKERELVAAISKRGDNTYYADAVKGRFTISRDNAKNTVYLQMNSLKPEDTAVYYCNVKLYGGRSDYWGQGTQVTVSS,high polyreactivity
7,QVQLVESGGGLVQAGGSLRLSCAASGFTFVAYAMGWYRQAPGKERELVAAISKSGGSTYYADSVKGRFTISRDNAKNSVYLQMNRLKPEDTAVYYCAARYYAYRSDYWGQGTQVTVSS,high polyreactivity
8,QVQLVESGGGLVQAGGSLRLSCAASGFIFSLYAMGRYRQATGKERELVAVITWSDGRTYYADSVKGRFTISRDNAKNTVYLQMNSLKPEDTAVYYCAAADWITEYDYWGQGTQVTVSS,low polyreactivity
9,KGQLVESGGGLVQEGGSLRLSCAASGNTFVNNHMVWYRQAPGEERELVAAISRRAGSTYYADSVKGRFTISRENAKNTVYIQKNSLKPEENAVYYCAARGSRYYYVQGASKYDYWGQGTQVTVSS,high polyreactivity
10,QVQLVESGGGLVQAGGSLRLSCAASGRIFTIYAMGWYRQEPGKERELVAAITRGGNTNYADSVKGRFTISRDNAKNTVYLLMNSLKPEDTAVYYCAARANVYTKKRDYWGQGTQVTVSS,high polyreactivity
11,QVQLVESGGGLVQAGGSLRLSCAASGITFGYYTMGWYRQAPGKEREFDAAISSTGGTYYADSVKGRFTISRDNAQNTVYLQMNSLKPEDTAVYYCAATFIQVVVNVQLYDYDYWGQGTQVTVSS,low polyreactivity
12,QVQIVESGGGLVQAGGSIRLSCAASGYTFVIYAMGSYRPAPGKERELVAAITTIGGRTYYADSVKGRFTISRDNAKNTVYLQMNSLKPEDTAVYYCAADIRSNRLYDGGYWGQGTQVTVSS,low polyreactivity
13,QVQLVESGGGLVQAGGSLRLSCAASGSTFYGYAMGWYRQAPGKERELVAAISSSGTRTYYADSVKGRFTISRDNAKNTVYLQMNSLKPEDTAVYYCATDVRVGHIRDYDYWGQGTQVTVSS,high polyreactivity
14,QVQLVESGGGLDQAGGSLRVSCAASGSILRYTMGWYRQAPGKERELVAAITRSGTSTYYADSVKGRFTISRDNAKNTVYLQMNSLKPEDTAVYYCAADDHYGRGFQYYYWGQGTQVTVSS,high polyreactivity
15,QVQLVESGGGLVQAGGSLRLSCAASGSIFQVYAMGWYRQAPGKERELVATITSGGSTYYADSVKGRFTISRDNAKNTVYLQMNSLKPEDTAVYYCAAGVVYWWTGYPTISTYDYWGQGTQVTVSS,low polyreactivity
16,QVQLVESGGGIVQAGGSLRLSRAASGFTFPFYAMRWYRQAHGKERELVAAISQSGVRTYYADSVKGRFTISRDNAKNSVYLLMNSLKPEDTAVYYCAATSLNTRTGYWGQGTQVTVSS,high polyreactivity
17,QVQLEESGGGLVQAGGSLRLSCAASGRTFYTNAMGWYRQAPGKERELVAAISGRGSTYYADSVKGRFTISRDNAKNTVYLQMNSLKPEDTAVYYCAALLPGRSSSDYWGQGTLVTVSS,high polyreactivity
18,QVQLVESGGGLVQAGCSLRLSCAASGITFAWYAMGWYRQAPGKERELVAAIDDRGGSTYYADSVKGRFTISRDNAKNTVYLQMNSLKPEDTAVYYCNADTPSYEPYRLDYWGQGTQVTVSS,low polyreactivity
19,QVQLVESGGVLVQAGGSLRLSCAASGFTFWDYAMGWYRHAPGKERELVAAISDNDGSTDYADSVKGRFTISRDNAKNTVYLQMNSLKPEDTAVYYCNAEIELPSKEGDYWGQGTQVTVSS,low polyreactivity
20,QVQLVESGGGLVQAGGSLRLSCVSSGFTFYFYAMGWYRQPPGKEREFVATITSNGGSTYYADSVKGRFTISRDNAKNTDYLQINSLKPEDTAVYYCNAGRYVRWWWYSPDDYWGQGTQVTVSS,high polyreactivity
21,QVQLVESGGGLVQAGGSLRLSCAASGRTFGRNAMGWYRQAPGKERELVAAITWSGVTTYYADSVKGRFTISRDNAKNTVYLQMNSLKPEDTAVYYCATGTLYSDGAIYGYWGQGTQVTVSS,low polyreactivity

row,Sequence,polyreactivity (PSR sort gate)
1,QVQLVESGGGIVQAGGSLRLSCAASGSTFDRYAMGWYRQAPGKERALVAAISWSGGSTYYADSVKGRFTISRDNAKNTVFLQMNSLKPEDTAVYYCNTASYYRRFHKYDYWGQGTQVTVSS,high polyreactivity
2,QVQLVESGGGLVQAGGSLRLSCAASGIIFYRYAMGWYRQAPGKESELVAAITWSGVSTSYADSVKGRFTISRDNAKNTVYLQMNSLKPEDTAVYYCNKDPGTLYGDMDSWGQGTQVTVSS,low polyreactivity
3,QVQLVESGGGLVQAGGSLRLSCAASGSTFVVYAMGWYRQAPGKERELVAAISSSGGSTYYADSVKGRFTISRDNAKNTVYLQMNSLKPEDTAVYYCAAGSRFVSSRLYYWGQGTQVTVSS,high polyreactivity
4,HVLLQESGGGLVQAGGTLRLSCAASGTITTDIRMGWYRLAPGKEREFVASIDGCSTTYYADSVKGRFTISRDNAKNTVYLQMNSLKPEDTAMYYCAAREATEFYLFYWGQGTQVTVSS,low polyreactivity
5,QVQLVDSGGGLVQAGGSLRLSCGASGRIFPYNAMGWYRQAPGKERELVAAINWSGGSTYYADSVKGRFTISRDTAKNTVYLQMNSLKPEDTAVYYCAVKTVRSSSRNYWRQGTQVTVSS,high polyreactivity
6,QVQLVESGLGLVQAGGSLRLSCAASGSIFQRYAMGWYRQAPGKEREFVAAISGRGGSTYYADSVKGRFTISRDNAKNTVYLQMNSLKPEDTAVYYCAADSSRFYGRPRFYYWGQGTQVTVSS,high polyreactivity
7,QVQLVESGGGLVQAGGSLRLSCAASGFTFFYNAMGWYRQAPGKEREFVAAISGRGGRTYYADSVKGRFTISRDNAKNTVYLQMNSLKPEDTAVYYCNADYYPYGEYDYWGQGTQVTVSS,high polyreactivity
8,QVQLVESGGGLVQEGGSLRLSCAASGTIFGIYAMGWYRKAPGKERELVAAISKSGGGTYYADSVKGRFTISRDNSKNTVFLQMNSLKPEDTAVNYCNVYVSKYRRFEYWGQGTQVTVSS,high polyreactivity
9,QVQLVESGGRLVQAGGSLRLSCAASGFIFDDYDIGWYTQAPGKERELVDAISWSGGSTYYEDSLKGRFTISRDNAKNTVYLQMNSLKPEDTAVYYCNADYYRSRYDYWGQGTQVTVSS,high polyreactivity
10,QVQLVESGGGLVQAGGSLRLSCAATGFTFGFNDMGWYRQAPGKERELVAAISWSGGRTYYADSVKGRFTISRDNAKNTVYLQMNSLKPEDTAVYDCAAEGVGRADRNKEYDYWGQGTQVTVSS,high polyreactivity
11,QVQLVESGGGLVQAGGSLRLSCAASGRTFYRNAMGWYRQAPGKEREFVAVISVSGGSTYYADSVKGRFTISRDNAKNTVYLQMNSLKPEDTAVSYCAADDYYLAGDYWGQGTQVTVSS,low polyreactivity
12,QVQLVESGGGLVQAGGSLRLSCAASGITFQRYALGWYRQAPGKERELVAAITRGGSTNYADSVKGRFTISRDNAKNTVYLQMNSLKPEDTAVYYCAAGARYGYGYWGQGTQVTVSS,high polyreactivity
13,QDQLVESGGGLVQAGGSLRLSCAASGFIFWFYAMGWYRQAPGKERELVASISARGARTYYADSVKGRFTISRDNAKNTVYLQMNSLKPEDTAVYYCATTSPVWWRADDYWGQGTQVTVSS,high polyreactivity
14,QVQLVESGGGLVQAGGSLRLSCAASGRTFKYNAMGWYRQAPGNERELVAAISRSGGSTYYADSVKGRFTISRDNAKNTVYLQMNSLKPEDTAVYYCNAEYLWIRHIAEDYWGQGTQVTVSS,low polyreactivity
15,QVQLVESGGGLVQAGGSLRLSCAASGYTFAANAMGWYRQSPGKERELVAAITSGGGSTYYADSVKGRFTISRDNAKNTVYLKMNSLNPEDTAVDYCAALQSHGVDFDNWGQGTQVTVSS,low polyreactivity
16,QVQLVESGGGLDQAGGSLRLSCAASGRIFIDNTMAWYRQAPGKERELVAAISWSGGSTYYADSVKGRFTISRDNAKNTVYLQMNSLKPEDTAVYYCAARSLRSNGRTWAVTYDYWGQGTQVTVSS,low polyreactivity
17,QVQLVESGGGLVQAGGSLRLSCASSGSIFAYNTMGRYRQAPGKERELVAAITGRAGSTYYADSVKGRFTISRDNAKNTFYLQMNSLKPEDTAVYYCAAEYRFAFPLWLDYWGQGTQVTVSS,high polyreactivity
18,QVQLVESGGGLVQAGGSLRLTCAASGRIFTTNAMGWYRQAPGKERELVAAITSGASTYADSVKGRVTISRDNAKNTGYLQMNSLKPEDTAVYAESTYNWYYYYWGQGTQVTVSS,low polyreactivity
19,QVQLVESGGGLVQAGGSLRLSCAASGFIFHGYTMGWYRQAPGKEMDMVARISFTGGSTYYADSVKGRFTISRDNAKNTVYLQMNSLKPEDTAVYYCAATYSSYWARYYYWGQGTQVTVSS,high polyreactivity
20,QVQLVESGGGLVQAGGSLRLSCAASGRTFAPNAMGWYRQAPGKERELVAAISWSGTSTYYADSVKGRFTISRDNAKNTVYLQMNSLKPEDTAVYYCAPDLEGRVGSPWTYDYWGQGTQVTVSS,low polyreactivity
